The values that follow come from article doi:10.1101/2024.04.26.591398.

For the experiment, the target named is T1, FITC-casein.
T1 sequence (P02666 16-224, species assumed, looked up): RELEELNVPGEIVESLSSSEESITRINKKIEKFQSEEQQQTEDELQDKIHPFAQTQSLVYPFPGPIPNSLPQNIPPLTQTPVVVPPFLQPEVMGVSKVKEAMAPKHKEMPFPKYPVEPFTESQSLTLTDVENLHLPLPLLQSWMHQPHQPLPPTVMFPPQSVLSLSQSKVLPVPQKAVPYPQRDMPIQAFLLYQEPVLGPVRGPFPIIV
The experiment in a line: fluorescence polarisation.

Hsp104, sequence (P31539 whole entry): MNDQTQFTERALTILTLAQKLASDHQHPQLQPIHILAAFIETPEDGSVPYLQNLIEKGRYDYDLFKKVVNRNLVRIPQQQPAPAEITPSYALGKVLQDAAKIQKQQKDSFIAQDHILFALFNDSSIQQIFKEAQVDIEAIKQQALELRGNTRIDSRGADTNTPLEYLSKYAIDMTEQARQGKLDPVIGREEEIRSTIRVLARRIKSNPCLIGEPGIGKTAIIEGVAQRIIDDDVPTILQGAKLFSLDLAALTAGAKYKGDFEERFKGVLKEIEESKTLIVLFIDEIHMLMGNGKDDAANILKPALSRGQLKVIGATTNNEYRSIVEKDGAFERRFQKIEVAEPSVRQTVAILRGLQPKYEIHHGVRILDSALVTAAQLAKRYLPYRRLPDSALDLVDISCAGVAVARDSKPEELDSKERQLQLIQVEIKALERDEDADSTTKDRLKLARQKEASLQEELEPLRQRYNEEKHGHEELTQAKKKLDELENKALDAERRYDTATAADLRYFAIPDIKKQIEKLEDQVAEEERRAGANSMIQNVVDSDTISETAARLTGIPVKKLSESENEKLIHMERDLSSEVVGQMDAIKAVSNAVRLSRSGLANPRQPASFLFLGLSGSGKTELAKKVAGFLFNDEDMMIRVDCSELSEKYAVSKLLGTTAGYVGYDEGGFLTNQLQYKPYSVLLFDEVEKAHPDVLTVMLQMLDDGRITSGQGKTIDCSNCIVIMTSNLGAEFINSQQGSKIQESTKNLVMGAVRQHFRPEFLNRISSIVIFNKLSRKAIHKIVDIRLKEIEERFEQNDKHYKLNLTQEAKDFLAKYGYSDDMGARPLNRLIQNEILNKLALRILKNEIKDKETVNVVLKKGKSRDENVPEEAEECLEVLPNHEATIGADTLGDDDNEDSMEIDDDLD
Ydj1, sequence (P25491 whole entry): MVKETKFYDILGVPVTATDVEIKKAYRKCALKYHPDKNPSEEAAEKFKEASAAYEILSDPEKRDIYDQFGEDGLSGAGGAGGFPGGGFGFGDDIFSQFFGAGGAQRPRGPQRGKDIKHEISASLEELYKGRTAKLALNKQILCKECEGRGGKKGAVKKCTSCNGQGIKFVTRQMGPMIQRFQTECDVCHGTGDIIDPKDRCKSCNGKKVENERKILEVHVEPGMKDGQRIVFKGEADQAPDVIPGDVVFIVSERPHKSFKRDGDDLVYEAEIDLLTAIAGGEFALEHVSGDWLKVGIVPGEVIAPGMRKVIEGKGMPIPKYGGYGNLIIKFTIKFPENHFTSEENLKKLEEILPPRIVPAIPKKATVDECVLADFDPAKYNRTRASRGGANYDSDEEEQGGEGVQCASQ

With “Hsp104 (from UniProt P31539 1-908) (natural protein)”, the Kd came to 200 nM.

The substance “Ydj1 (from UniProt P25491 1-409) (natural protein)” yielded a concentration for half-maximal inhibition (IC50) of 20 to 40 µM.

Broadly, the Kd is the constant that tells how readily two partners part at equilibrium. As a reminder, the IC50 is the concentration that gives 50% inhibition. Read a low IC50 as inhibition by little substance.
